Substitutions are numbered along the chain they refer to.
T1: Human MuSK (R&D Systems, cat. 10189-MK, histidine tag) (human, UniProt O15146 24-495)
T1 construct: Bought protein; also called human monomeric MuSK-6xhis; not shown: histidine tag (6xhis)
T1 sequence: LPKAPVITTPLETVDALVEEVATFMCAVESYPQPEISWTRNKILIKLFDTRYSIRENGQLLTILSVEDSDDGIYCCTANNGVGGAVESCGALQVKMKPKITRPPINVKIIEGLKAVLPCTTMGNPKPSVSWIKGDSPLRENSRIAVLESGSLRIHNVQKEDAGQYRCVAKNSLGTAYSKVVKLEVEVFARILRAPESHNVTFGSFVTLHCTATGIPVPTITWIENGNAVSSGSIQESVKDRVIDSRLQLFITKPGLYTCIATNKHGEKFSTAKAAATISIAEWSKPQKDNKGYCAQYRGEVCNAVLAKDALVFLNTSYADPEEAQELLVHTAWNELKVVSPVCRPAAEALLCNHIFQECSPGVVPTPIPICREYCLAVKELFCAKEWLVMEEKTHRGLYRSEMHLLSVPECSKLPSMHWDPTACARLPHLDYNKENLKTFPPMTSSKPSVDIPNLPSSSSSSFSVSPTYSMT

T2: human monomeric MuSK FLAG streptavidin (in house produced, batch 27-6-2019) (human, UniProt O15146 24-495)
T2 construct: also called full length MuSK; not shown: FLAG and streptavidin tags
T2 sequence: T1 sequence

T3: Mouse MuSK (recombinant, streptavidine and Flag tag) (mouse, UniProt Q61006 22-494)
T3 construct: not shown: streptavidine and Flag tag
T3 sequence: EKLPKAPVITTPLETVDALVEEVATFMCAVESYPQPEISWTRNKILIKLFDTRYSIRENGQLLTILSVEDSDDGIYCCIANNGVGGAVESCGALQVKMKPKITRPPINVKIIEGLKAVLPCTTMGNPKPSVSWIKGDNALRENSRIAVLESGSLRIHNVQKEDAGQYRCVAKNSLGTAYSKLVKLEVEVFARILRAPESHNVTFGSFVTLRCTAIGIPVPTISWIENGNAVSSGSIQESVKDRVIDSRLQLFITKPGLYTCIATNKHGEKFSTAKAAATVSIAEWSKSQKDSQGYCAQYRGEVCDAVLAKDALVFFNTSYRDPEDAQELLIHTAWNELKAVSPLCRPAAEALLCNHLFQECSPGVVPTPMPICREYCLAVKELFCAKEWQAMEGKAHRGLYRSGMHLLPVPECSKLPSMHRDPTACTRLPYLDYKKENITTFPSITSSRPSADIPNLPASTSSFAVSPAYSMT

T4: Rhesus monkey MuSK (recombinant, streptavidine and Flag tag) (rhesus monkey, UniProt O15146 24-495 (human entry))
T4 construct: also called Rhesus MuSK; not shown: streptavidine and Flag tag
T4 chain: T1 sequence with I144T, I278V, V342L, I355V, V389A, L437P

B1: 3D10a (antibody, human IgG1, kappa, L234A L235A, V domains shown)
VH: EVQLVESGGGLVKPGGSLRLSCAASGFTFSASTMAWVRQAPGKGLEWVSSVSGDSHHIYYADSLKGRFTISRDNAKNSLYLQMNSLRAEDTAVYYCARERLLRLGVGFDSWGQGTLVTVSS
VL: DIQMTQSPSSLSASVGDRVTITCRASQRISGFVNWYQQKPGKAPKLLIYAASTLQSGVPSRFSGSGSGTDFTLTISSLQPEDFATYYCQQSYSPLYTFGQGTKLEIKR
B2: 3F6c (antibody, human IgG1, kappa, L234A L235A, V domains shown)
VH: EVQLVESGGGLVKPGGSLRLSCAASGFTFSSYTMDWVRQAPGKGLEWVSSIGSNGDYIYYADSVRGRFTISRDNAKNSLYLQMNSLRAEDTAVYYCARGQLAVAGTHFDYWGQGTLVTVSS
VL: B1 VL with R28K, I29V, S30N, G31K, F32Y, Y96S
B3: 4D3 (antibody, human IgG1, kappa, L234A L235A, V domains shown)
VH: B1 VH with A31S, S32Y, A35T, V51I, G53S, D54G, S55G, H57Y, A61T, S110F
VL: B1 VL with R28S, F32Y, V33L, P94A
B4: 3D9b (antibody, human IgG1, kappa, L234A L235A, V domains shown)
VH: EVQLVESGGGLVKPGGSLRLSCAASGFTFSTYTMHWVRQAPGKGLEWVSSISSRSAYKYYADSVKGRFTISRDNAKNSLYLQMNSLRAEDTAVYYCARDFFQLGPPRFDSWGQGTLVTVSS
VL: B1 VL with G31S, V33L, A50G, T53N, L95S

What follows are binders tested against T1, Human MuSK (R&D Systems, cat. 10189-MK, …) (assay: SPR (Biacore), MuSK-coated chip presaturated with 500 nM 4D3 (competitor)).
Method: (§1) A chip was coated with ˜5000 RU of human MuSK (Lot nr DHUCO 11908A, batch nr 1089_MK). In a first experiment the saturating concentration of the pre-leads was determined. This is the concentration where the amplitude of a specific pre-lead doesn't increase anymore when additional pre-lead is injected on the immobilized MuSK.

First: B1
Second: B2
The “amplitude of prelead after presaturating MuSK (RU)” value of the first is higher: 68 RU for the first, 59 RU for the second.

Going from B3 to B4, the “amplitude of prelead after presaturating MuSK (RU)” value rises from 45 RU to 163 RU.

Going from B1 to B2, the “extra amplitude (%)” value falls from 7.2% to 5.8%.

First: B3
Second: B4
The “extra amplitude (%)” value of the first is lower: 5.2% for the first, 14.9% for the second.

Going from B1 to B2, the “normalized extra amplitude (%)” value falls from 1.9% to 0.6%.

Compared with B3, B4 is higher in “normalized extra amplitude (%)” value: 0% for the first, 9.6% for the second.

Each binder was assayed against T1, Human MuSK (R&D Systems, cat. 10189-MK, …) (assay: SPR (Biacore), antibody captured on anti-hFc chip; 5 nM; dissociation pH 7.4).
Text: In order to study pH dependent binding of our antibodies to MuSK, the Biacore was used with the same setup as described in the paragraph entitled “Binding affinity for mouse, human and rhesus monkey recombinant MuSK in Biacore”. 6. […] For the other antibodies there is no real difference observed between pH 7.4 and 5.5.

Compared with B1, B2 is 2.1-fold lower in koff: 0.00015 s⁻¹ for the first, 7e-05 s⁻¹ for the second.

First: B3
Second: B4
The koff of the first is 1.7-fold higher: 0.00014 s⁻¹ for the first, 8e-05 s⁻¹ for the second.

Each binder was assayed against T1, Human MuSK (R&D Systems, cat. 10189-MK, …) (assay: SPR (Biacore), MuSK-coated chip, antibody alone (run of first antibody 3D10a)).
Method: as §1

Compared with B1, B2 is lower in “amplitude of prelead without presaturating MuSK (RU)” value: 3130 RU for the first, 2510 RU for the second.

Compared with B3, B4 is lower in “amplitude of prelead without presaturating MuSK (RU)” value: 2620 RU for the first, 2110 RU for the second.

These binders were tested against T2, human monomeric MuSK FLAG streptavidin … (assay: epitope binning ELISA (coated anti-MuSK Fab, MuSK, IgG, anti-Fc HRP); competitor: 3B5wt).
Method: For epitope binning—An ELISA plate was coated at 1 μg/ml of the anti-MuSK Fabs and incubated overnight at 4° C. Next, the plate was wash with PBS followed by blocking with 1% casein in PBS for one hour. After washing the plate, 1 μg/ml of human monomeric MuSK (in house produced, batch 27-6-2019) was incubated for one hour at RT. The plate was washed and anti-MuSK antibodies at 0.3-10 μg/ml were added to the plate and incubated for one hour at RT. After washing the plate, detection antibody (goat anti-human Fc HRP (Jackson Immunoresearch cat. 109-035-098)) was added at 5000 fold dilution in PBS 0.1% casein. The plate was incubated for one hour at RT and washed with PBS-T. TMB was added and the reaction was stopped by adding H2504. […]
For the epitope binning ELISA, a plate was coated with anti-MuSK Fab and human monomeric MuSK was added after blocking the plate. Next the different antibodies were added and allowed to bind.

Going from B1 to B2, the “OD 450 nm” value rises from 2.12 OD to 2.2 OD.

Compared with B3, B4 is higher in “OD 450 nm” value: 0.882 OD for the first, 2.66 OD for the second.

These binders were tested against T3, Mouse MuSK (recombinant, streptavidine …) (assay: SPR (Biacore), antibody captured on anti-hFc chip, MuSK injected 0.3125-10 nM).
Method: (§2) The affinity of 3D10a, 4D3, 3F6c and 3D9b for human, rhesus monkey and mouse MuSK was tested in Biacore using the setup shown in FIG. 3. […] The affinities are very high keeping in mind that MuSK was added here in solution, allowing only for monovalent binding (affinity versus avidity).

Compared with B1, B2 is 3.3-fold lower in Kd: 0.1 nM for the first, 0.03 nM for the second.

B3 and B4 are within 1.5-fold of each other in Kd: 0.17 nM for the first, 0.14 nM for the second.

Target: T4, Rhesus monkey MuSK (recombinant, …)
Assay: as above
Method: as §2

Compared with B1, B2 is 1.6-fold lower in Kd: 0.21 nM for the first, 0.13 nM for the second.

B3 and B4 are within 1.5-fold of each other in Kd: 0.31 nM for the first, 0.28 nM for the second.

The binders below were run against T1, Human MuSK (R&D Systems, cat. 10189-MK, …) in the same assay as above.
Method: as §2

Going from B1 to B2, the Kd falls from 0.16 nM to 0.05 nM (3.2-fold). The second binds more tightly here.

Compared with B3, B4 is 1.5-fold lower in Kd: 0.26 nM for the first, 0.17 nM for the second. The second binds more tightly here.

From patent US20230110188A1 (ARGENX IIP, published 2023)
